Data taken from publication PMC4176352, “Essential role of eIF5-mimic protein in animal development is linked to control of ATF4 expression” (Nucleic Acids Research, 2014).

B1: human eIF2β 53–136 (domain or fragment, UniProt P20042 53-136, looked up)
chain: DLEADEEDTRKKDASDDLDDLNFFNQKKKKKKTKKIFDIDEAEEGVKDLKIESDVQEPTEPEDDLDIMLGNKKKKKKNVKFPDE
notes: human eIF2 beta subunit, residues 53-136, carrying two K-boxes; also called eIF2β_(53–135)
B2: polyhistidine-tagged full-length human 5MP1 (natural protein, UniProt Q9Y6E2 1-419, looked up)
chain: MNKHQKPVLTGQRFKTRKRDEKEKFEPTVFRDTLVQGLNEAGDDLEAVAKFLDSTGSRLDYRRYADTLFDILVAGSMLAPGGTRIDDGDKTKMTNHCVFSANEDHETIRNYAQVFNKLIRRYKYLEKAFEDEMKKLLLFLKAFSETEQTKLAMLSGILLGNGTLPATILTSLFTDSLVKEGIAASFAVKLFKAWMAEKDANSVTSSLRKANLDKRLLELFPVNRQSVDHFAKYFTDAGLKELSDFLRVQQSLGTRKELQKELQERLSQECPIKEVVLYVKEEMKRNDLPETAVIGLLWTCIMNAVEWNKKEELVAEQALKHLKQYAPLLAVFSSQGQSELILLQKVQEYCYDNIHFMKAFQKIVVLFYKADVLSEEAILKWYKEAHVAKGKSVFLDQMKKFVEWLQNAEEESESEGEEN
notes: human eIF5-mimic protein 1 (5MP1, BZW2), full length; Preparation of the construct is described in the Supplementary file; also called BZW2; eIF5-mimic protein 1
B3: polyhistidine-tagged human 5MP1 C-terminal domain (aa. 245–419) (domain or fragment, UniProt Q9Y6E2 245-419, looked up)
chain: FLRVQQSLGTRKELQKELQERLSQECPIKEVVLYVKEEMKRNDLPETAVIGLLWTCIMNAVEWNKKEELVAEQALKHLKQYAPLLAVFSSQGQSELILLQKVQEYCYDNIHFMKAFQKIVVLFYKADVLSEEAILKWYKEAHVAKGKSVFLDQMKKFVEWLQNAEEESESEGEEN
notes: human eIF5-mimic protein 1 (5MP1, BZW2), CTD, aa; 245-419; Preparation of the construct is described in the Supplementary file; also called 5MP1-CTD; CTD

Legend:
Test in all cases: ITC; a solution of eIF2β 53–136 injected with human 5MP1 constructs; performed as described previously (16)
Conditions in all cases: both partners purified
[1] = target: B3
[2] = target: B2
human eIF2β 53–136 = target: B1

Binder | Kd [1] [µM] | Kd [2] [µM] | stoichiometry N (human eIF2β 53–136)
B1 | ~5 | ~2 | –
B2 | – | – | 1
B3 | – | – | 0.5
